Laboratory results published in the supplement of paper PMC5998384.

Key:
HeLa Kyoto [1] = assay: melting temperature (median over replicates), in situ; higher = more thermally stable
HeLa Kyoto [2] = assay: solubility in G1/S (NP-40 vs SDS abundance) (log2 ratio); higher = more soluble; conditions: cell cycle stage: G1/S
HeLa Kyoto [3] = assay: solubility change mitosis vs G1/S (difference of NP-40 vs SDS log2 ratios) (log2 ratio difference); higher = more soluble in mitosis
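Wherever melting temperature (median over replicates), in situ is given: HeLa Kyoto cells synchronized by double thymidine or nocodazole block, proteins quantified by TMT10plex mass spectrometry, three independent biological replicates.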
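Wherever solubility change mitosis vs G1/S (difference of NP-40 vs SDS log2 ratios) is given: synchronized HeLa Kyoto cells (double thymidine block for G1/S, nocodazole release for mitosis), protein amounts in NP-40 versus SDS lysates quantified by mass spectrometry, three biological replicates.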
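Wherever solubility in G1/S (NP-40 vs SDS abundance) is given: HeLa Kyoto cells arrested at G1/S by double thymidine block, proteins quantified by TMT10plex mass spectrometry in mild NP-40 versus SDS extracts, three biological replicates.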

Sequence	melting temperature (HeLa Kyoto [1]; cell cycle stage: G1/S) [°C]	solubility in G1/S (log2) (HeLa Kyoto [2])	solubility change mitosis (log2) (HeLa Kyoto [3])	melting temperature (HeLa Kyoto [1]; cell cycle stage: mitosis) [°C]
MASKGPSASASPENSSAGGPSGSSNGAGESGGQDSTFECNICLDTAKDAVISLCGHLFCWPCLHQWLETRPNRQVCPVCKAGISRDKVIPLYGRGSTGQQDPREKTPPRPQGQRPEPENRGGFQGFGFGDGGFQMSFGIGAFPFGIFATAFNINDGRPPPAVPGTPQYVDEQFLSRLFLFVALVIMFWLLIA [RNF185]	53.4	0.352	-0.146	
MTLIEGVGDEVTVLFSVLACLLVLALAWVSTHTAEGGDPLPQPSGTPTPSQPSAAMAATDSMRGEAPGAETPSLRHRGQAAQPEPSTGFTATPPAPDSPQEPLVLRLKFLNDSEQVARAWPHDTIGSLKRTQFPGREQQVRLIYQGQLLGDDTQTLGSLHLPPNCVLHCHVSTRVGPPNPPCPPGSEPGPSGLEIGSLLLPLLLLLLLLLWYCQIQYRPFFPLTATLGLAGFTLLLSLLAFAMYRP [TMUB1]	51.6	0.566	0.143	52.5
MATQAHSLSYAGCNFLRQRLVLSTLSGRPVKIRKIRARDDNPGLRDFEASFIRLLDKITNGSRIEINQTGTTLYYQPGLLYGGSVEHDCSVLRGIGYYLESLLCLAPFMKHPLKIVLRGVTNDQVDPSVDVLKATALPLLKQFGIDGESFELKIVRRGMPPGGGGEVVFSCPVRKVLKPIQLTDPGKIKRIRGMAYSVRVSPQMANRIVDSARSILNKFIPDIYIYTDHMKGVNSGKSPGFGLSLVAETTSGTFLSAELASNPQGQGAAVLPEDLGRNCARLLLEEIYRGGCVDSTNQSLALLLMTLGQQDVSKVLLGPLSPYTIEFLRHLKSFFQIMFKIETKPCGEELKGGDKVLMTCVGIGFSNLSKTLK [RCL1]	52.4	-1.92	0.888	52.3
MEDPFEEADQPTTEPGMVLDSVEAGDTTPPTKRKSKFSGFGKIFKPWKWRKKKSSDKFKETSEVLERKISMRKPREELVKRGVLLEDPEQGGEDPGKPSDAMLKNGHTTPIGNARSSSPVQVEEEPVRLASLRKAIPEEDLKKRLGSTGSQPNSEAESVPENVPKPPLLPPKRPLSSSHEASEGQAKDATSSGGTARFIISTSITTAPAATTAATSLAKTVNLSVTPSPAPRTLPAAPASTNTTATPSLTHMVPAKQPPIPPPKPAHRNSNPVIAELSQAINSGTLLSKPSPPLPPKRGIPSTSVPTLESAAAITTKTPSDEREKSTCSMGSELLPMISPRSPSPPLPTHIPPEPPRTPPFPAKTFQVVPEIEFPPSLDLHQEIPQQEDQKKEVPKRILDQNFGEPHIPSRLPPLPLHIRIQQALTSPLPMTPILEGSHRAHSLLFENSDSFSEDSSTLGRTRSLPITIEMLKVPDDEEEEEQTCPSTFSEEMTPTSVIPKLPQCLREEEEKESDSDSEGPIQYRDEEDEDESYQSALANKVKRKDTLAMKLNHRPSEPELNLNSWPCKSKEEWNEIRHQIGNTLIRRLSQRPTPEELEQRNILQPKNEADRQAEKREIKRRLTRKLSQRPTVAELLARKILRFNEYVEVTDAQDYDRRADKPWTKLTPADKAAIRKELNEFKSSEMEVHEESKHFTRYHRP [PHACTR4]	54.3	0.401	0.0651	54.9
MALAGCPDSFLHHPYYQDKVEQTPRSQQDPAGPGLPAQSDRLANHQEDDVDLEALVNDMNASLESLYSACSMQSDTVPLLQNGQHARSQPRASGPPRSIQPQVSPRQRVQRSQPVHILAVRRLQEEDQQFRTSSLPAIPNPFPELCGPGSPPVLTPGSLPPSQAAAKQDVKVFSEDGTSKVVEILADMTARDLCQLLVYKSHCVDDNSWTLVEHHPHLGLERCLEDHELVVQVESTMASESKFLFRKNYAKYEFFKNPMNFFPEQMVTWCQQSNGSQTQLLQNFLNSSSCPEIQGFLHVKELGKKSWKKLYVCLRRSGLYCSTKGTSKEPRHLQLLADLEDSNIFSLIAGRKQYNAPTDHGLCIKPNKVRNETKELRLLCAEDEQTRTCWMTAFRLLKYGMLLYQNYRIPQQRKALLSPFSTPVRSVSENSLVAMDFSGQTGRVIENPAEAQSAALEEGHAWRKRSTRMNILGSQSPLHPSTLSTVIHRTQHWFHGRISREESHRIIKQQGLVDGLFLLRDSQSNPKAFVLTLCHHQKIKNFQILPCEDDGQTFFSLDDGNTKFSDLIQLVDFYQLNKGVLPCKLKHHCIRVAL [GRB10]	48.1	0.159	-0.231	49.1
MEESEPERKRARTDEVPAGGSRSEAEDEDDEDYVPYVPLRQRRQLLLQKLLQRRRKGAAEEEQQDSGSEPRGDEDDIPLGPQSNVSLLDQHQHLKEKAEARKESAKEKQLKEEEKILESVAEGRALMSVKEMAKGITYDDPIKTSWTPPRYVLSMSEERHERVRKKYHILVEGDGIPPPIKSFKEMKFPAAILRGLKKKGIHHPTPIQIQGIPTILSGRDMIGIAFTGSGKTLVFTLPVIMFCLEQEKRLPFSKREGPYGLIICPSRELARQTHGILEYYCRLLQEDSSPLLRCALCIGGMSVKEQMETIRHGVHMMVATPGRLMDLLQKKMVSLDICRYLALDEADRMIDMGFEGDIRTIFSYFKGQRQTLLFSATMPKKIQNFAKSALVKPVTINVGRAGAASLDVIQEVEYVKEEAKMVYLLECLQKTPPPVLIFAEKKADVDAIHEYLLLKGVEAVAIHGGKDQEERTKAIEAFREGKKDVLVATDVASKGLDFPAIQHVINYDMPEEIENYVHRIGRTGRSGNTGIATTFINKACDESVLMDLKALLLEAKQKVPPVLQVLHCGDESMLDIGGERGCAFCGGLGHRITDCPKLEAMQTKQVSNIGRKDYLAHSSMDF [DDX41]	47.5	-0.425	0.325	49
MPGGCSRGPAAGDGRLRLARLALVLLGWVSSSSPTSSASSFSSSAPFLASAVSAQPPLPDQCPALCECSEAARTVKCVNRNLTEVPTDLPAYVRNLFLTGNQLAVLPAGAFARRPPLAELAALNLSGSRLDEVRAGAFEHLPSLRQLDLSHNPLADLSPFAFSGSNASVSAPSPLVELILNHIVPPEDERQNRSFEGMVVAALLAGRALQGLRRLELASNHFLYLPRDVLAQLPSLRHLDLSNNSLVSLTYVSFRNLTHLESLHLEDNALKVLHNGTLAELQGLPHIRVFLDNNPWVCDCHMADMVTWLKETEVVQGKDRLTCAYPEKMRNRVLLELNSADLDCDPILPPSLQTSYVFLGIVLALIGAIFLLVLYLNRKGIKKWMHNIRDACRDHMEGYHYRYEINADPRLTNLSSNSDV [TPBG]	53.4	0.234	0.104	53.4
MDNRFATAFVIACVLSLISTIYMAASIGTDFWYEYRSPVQENSSDLNKSIWDEFISDEADEKTYNDALFRYNGTVGLWRRCITIPKNMHWYSPPERTESFDVVTKCVSFTLTEQFMEKFVDPGNHNSGIDLLRTYLWRCQFLLPFVSLGLMCFGALIGLCACICRSLYPTIATGILHLLAGLCTLGSVSCYVAGIELLHQKLELPDNVSGEFGWSFCLACVSAPLQFMASALFIWAAHTNRKEYTLMKAYRVA [CLDND1]		-0.395	0.186	58.6
MNRVNDPLIFIRDIKPGLKNLNVVFIVLEIGRVTKTKDGHEVRSCKVADKTGSITISVWDEIGGLIQPGDIIRLTRGYASMWKGCLTLYTGRGGELQKIGEFCMVYSEVPNFSEPNPDYRGQQNKGAQSEQKNNSMNSNMGTGTFGPVGNGVHTGPESREHQFSHAGRSNGRGLINPQLQGTASNQTVMTTISNGRDPRRAFKR [NABP1]		0.0163	-0.222	50.7
MGVALRKLTQWTAAGHGTGILEITPLNEAILKEIIVFVESFIYKHPQEAKFVFVEPLEWNTSLAPSAFESGYVVSETTVKSEEVDKNGQPLLFLSVPQIKIRSFGQLSRLLLIAKTGKLKEAQACVEANRDPIVKILGSDYNTMKENSIALNILGKITRDDDPESEIKMKIAMLLKQLDLHLLNHSLKHISLEISLSPMTVKKDIELLKRFSGKGNQTVLESIEYTSDYEFSNGCRAPPWRQIRGEICYVLVKPHDGETLCITCSAGGVFLNGGKTDDEGDVNYERKGSIYKNLVTFLREKSPKFSENMSKLGISFSEDQQKEKDQLGKAPKKEEAAALRKDISGSDKRSLEKNQINFWRNQMTKRWEPSLNWKTTVNYKGKGSAKEIQEDKHTGKLEKPRPSVSHGRAQLLRKSAEKIEETVSDSSSESEEDEEPPDHRQEASADLPSEYWQIQKLVKYLKGGNQTATVIALCSMRDFSLAQETCQLAIRDVGGLEVLINLLETDEVKCKIGSLKILKEISHNPQIRQNIVDLGGLPIMVNILDSPHKSLKCLAAETIANVAKFKRARRVVRQHGGITKLVALLDCAHDSTKPAQSSLYEARDVEVARCGALALWSCSKSHTNKEAIRKAGGIPLLARLLKTSHENMLIPVVGTLQECASEENYRAAIKAERIIENLVKNLNSENEQLQEHCAMAIYQCAEDKETRDLVRLHGGLKPLASLLNNTDNKERLAAVTGAIWKCSISKENVTKFREYKAIETLVGLLTDQPEEVLVNVVGALGECCQERENRVIVRKCGGIQPLVNLLVGINQALLVNVTKAVGACAVEPESMMIIDRLDGVRLLWSLLKNPHPDVKASAAWALCPCIKNAKDAGEMVRSFVGGLELIVNLLKSDNKEVLASVCAAITNIAKDQENLAVITDHGVVPLLSKLANTNNNKLRHHLAEAISRCCMWGRNRVAFGEHKAVAPLVRYLKSNDTNVHRATAQALYQLSEDADNCITMHENGAVKLLLDMVGSPDQDLQEAAAGCISNIRRLALATEKARYT [ARMC4]		0.0866	0.00126	
MPALACLRRLCRHVSPQAVLFLLFIFCLFSVFISAYYLYGWKRGLEPSADAPEPDCGDPPPVAPSRLLPLKPVQAATPSRTDPLVLVFVESLYSQLGQEVVAILESSRFKYRTEIAPGKGDMPTLTDKGRGRFALIIYENILKYVNLDAWNRELLDKYCVAYGVGIIGFFKANENSLLSAQLKGFPLFLHSNLGLKDCSINPKSPLLYVTRPSEVEKGVLPGEDWTVFQSNHSTYEPVLLAKTRSSESIPHLGADAGLHAALHATVVQDLGLHDGIQRVLFGNNLNFWLHKLVFVDAVAFLTGKRLSLPLDRYILVDIDDIFVGKEGTRMKVEDVKALFDTQNELRAHIPNFTFNLGYSGKFFHTGTNAEDAGDDLLLSYVKEFWWFPHMWSHMQPHLFHNQSVLAEQMALNKKFAVEHGIPTDMGYAVAPHHSGVYPVHVQLYEAWKQVWSIRVTSTEEYPHLKPARYRRGFIHNGIMVLPRQTCGLFTHTIFYNEYPGGSSELDKIINGGELFLTVLLNPISIFMTHLSNYGNDRLGLYTFKHLVRFLHSWTNLRLQTLPPVQLAQKYFQIFSEEKDPLWQDPCEDKRHKDIWSKEKTCDRFPKLLIIGPQKTGTTALYLFLGMHPDLSSNYPSSETFEEIQFFNGHNYHKGIDWYMEFFPIPSNTTSDFYFEKSANYFDSEVAPRRAAALLPKAKVLTILINPADRAYSWYQHQRAHDDPVALKYTFHEVITAGSDASSKLRALQNRCLVPGWYATHIERWLSAYHANQILVLDGKLLRTEPAKVMDMVQKFLGVTNTIDYHKTLAFDPKKGFWCQLLEGGKTKCLGKSKGRKYPEMDLDSRAFLKDYYRDHNIELSKLLYKMGQTLPTWLREDLQNTR [NDST1]		-0.0442	-0.0111	
MAGALVRKAADYVRSKDFRDYLMSTHFWGPVANWGLPIAAINDMKKSPEIISGRMTFALCCYSLTFMRFAYKVQPRNWLLFACHATNEVAQLIQGGRLIKHEMTKTASA [MPC1]		-0.461	-0.165	
